Measured values taken from the DeepSol protein solubility set.

experiment: soluble on expression in E. coli; label from the status in PepcDB or PDB records

Sequence | soluble on expression in E. coli
MVSTLKRDEALFELIALEEKRQREGLELIASENFVSKQVREAVGSVLTNKYAEGYPGARYYGGCEVIDRVESLAIERAKALFGAAWANVQPHSGSQANMAVYMALMEPGDTLMGMDLAAGGHLTHGSRVNFSGKLYKVVSYGVRPDTELIDLEEVRRLALEHRPKVIVAGASAYPRFWDFKAFREIADEVGAYLVVDMAHFAGLVAAGLHPNPLPYAHVVTSTTHKTLRGPRGGLILSNDPELGKRIDKLIFPGIQGGPLEHVIAGKAVAFFEALQPEFKEYSRLVVENAKRLAEELARRGYRIVTGGTDNHLFLVDLRPKGLTGKEAEERLDAVGITVNKNAIPFDPKPPRVTSGIRIGTPAITTRGFTPEEMPLVAELIDRALLEGPSEALREEVRRLALAHPMP | soluble
MVTITLYMNNNIEYISKIKKGEETSFRHFVNSYSKDLFYYAQCFVRSKETAEEVVSDVFLDVWRHREEIDEIKNIKAWLLTLTHNKAISYLRKAENSSEIASWEEIDDFQIIGNLQTPDEEMISKEEIAQINSLIQTLPPKCKVVFALAKIERLPYKEIADMLNISVKTINVHVAKALEIISNGLKK | not soluble
MVTKEVGHDFLARLGKKRLRPGGVEATNWLIEQGQFSQDCHVLEVACNRCTTAIELAKTFGCQIDAVDLNPKVVKEAQERVAVEGLTRHITVSQASALSLPFPDNHFDIVINEAMLTMLNAQAKEKALNEYWRVLKPGGRLLTHDVAYEDPKTRQVLDELRQTIHVNVAPLSLTGWQALYQEHGFSQVTYHHGKMSLMTPRGMIKDEGLMNTLNIMRRGLKKENRQQFLKMRRFFTRTGKNLCYIAVKSVK | not soluble
MVVFEITILGANGGPTEYGTQCFILKPARTEDPELIAVDGGAGMYQLREMLVQGRNENEGDDELVPSFYEHDREPIEFFIDSKLNIQKGLSKSLLQSLKRQGEHFESANTMKKTYEVFQGITDYYITHPHLDHISGLVVNSPSIYEQENSKKKTIWGLPHTIDVLQKHVFNDLIWPDLTAERSRKLKLKCLNPKEVQKCTIFPWDVIPFKVHHGIGVKTGAPVYSTFYIFRDRKSKDCIIVCGDVEQDRRESEESLLEEFWSYVAENIPLVHLKGILVECSCPLSSKPEQLYGHLSPIYLINELSNLNTLYNSSKGLSGLNVIVTHVKSTPAKRDPRLTILEELRFLAEERNLGDLRISIALEGHTLFL | not soluble
MVVNYPRAYTAEQSRPINLVGKQGQAVQISIHYPSQYICANRERILPDWQEQALFWVVIVLQQSKYPLVKSTAEIEREKEHLREKFMRFGCDLAFELRDRGYLADLIDPRTGYPMLSRPGVIPHNDTAVVKALLNYPVLKNKCSVIVHPHWGTAVYPSIFLSAALEHHHHHH | not soluble
MVVQVQPVEVDVESLVTRVFLKAIDLLGGLHKLAEYRTLTWLPSLARAAFVIVYREEFLKTEEEIAELVGLTRQTVRNILRADPELALYKIQHIDELTKEEKKELRVHTAGGIAKLAYKKVKEGEEPKVFLEFCTMAAEALEVPWAYLLLKKIKGTHFPINSPEELKEKVKGVVIKGMPAEEVVEKIEYPVKNPADLLHKIKIHLKMMGVE | soluble
MVYNENTPHFYNKSGKETFMSNILFSVFPNENFIDMSLYQFGWEQCQPSHSYGPAARNHYLFHYVISGTGTLMADDTSGITQTYSVKSGQGFMIFPQQITTYIADQKLPWEYVWIEFDGLRVKEILELAGLTKSAPIYHAHSKEMREVLKEEMLYIARNPEQPPFHLIGHLYLFMDALTRSCTREQTNSAGRLRDFYIHEAIAFIEQNFQNDISVEDIAEVCGLNRSYFGKIFKETLGRSPQEFLMNYRMVKATELLKLTQLSISEISNAVGYANPLHFSRAFKNVYGESPRIWRQNHRT | not soluble
MVYTVDFKEVATIGLESSPVAPALAGLRANEARYFWNKYKHRFTTVPASEAPETLAWIEKILLERELHFPYKPLEISSFTLDGIKMAYVFYENGLAVNVMYTLAEEGKRAVGFKLSDGMAIPAEFEGKFKFARQKSKLAGTIRGSYFVIKGTY | soluble
MVYVAVLANIAGNLPALTAALSRIEEMREEGYEIEKYYILGNIVGLFPYPKEVIEVIKDLTKKENVKIIRGKYDQIIAMSDPHATDPGYIDKLELPGHVKKALKFTWEKLGHEGREYLRDLPIYLVDKIGGNEVFGVYGSPINPFDGEVLAEQPTSYYEAIMRPVKDYEMLIVASPMYPVDAMTRYGRVVCPGSVGFPPGKEHKATFALVDVDTLKPKFIEVEYDKKIIEERIRAEGLPEEIIKILYHGGRP | soluble
MWCLPLSSGNDAHMTTHIQRSALLPYPAGFLYDLVNDVARYPEFLPWCSSATVLDASESQMRASLEIAKGGLSQKFMTRNTLVPGESIVMDLVEGPFEQFHGVWTFKPLGEKACKISLDLSFDYAGTIVRATLGPLFNQAANTLVDAFCQRAKELHGLEHHHHHH | not soluble
MWDKSLVFTFFRRRFGMALSTFKREHIKKNLRNDEYDLVIIGGGITGAGIALDASERGMKVALVEMQDFAQGTSSRSTKLVHGGLRYLKQFQIGVVAETGKERAIVYENGPHVTTPEWMLLPMHKGGTFGKFSTSIGLGMYDRLAGVKKSERKKMLSKKETLAKEPLVKKEGLKGGGYYVEYRTDDARLTIEVMKRAAEKGAEIINYTKSEHFTYDKNQQVNGVKVIDKLTNENYTIKAKKVVNAAGPWVDDVRSGDYARNNKKLRLTKGVHVVIDQSKFPLGQAVYFDTEKDGRMIFAIPREGKAYVGTTDTFYDNIKSSPLTTQEDRDYLIDAINYMFPSVNVTDEDIESTWAGIRPLIYEEGKDPSEISRKDEIWEGKSGLLTIAGGKLTGYRHMAQDIVDLVSKRLKKDYGLTFSPCNTKGLAISGGDVGGSKNFDAFVEQKVDVAKGFGIDEDVARRLASKYGSNVDELFNIAQTSQYHDSKLPLEIYVELVYSIQQEMVYKPNDFLVRRSGKMYFNIKDVLDYKDAVIDIMADMLDYSPAQIEAYTEEVEQAIKEAQHGNNQPAVKELEHHHHHH | soluble
MWIVFDVDGVLIDTSESYDMATKLTVEYFLSHLGIKKEVSLEIIRDMRKKGVFSDDFELSEALILMYLSGEDLPKGEGVEYLRQKLGIVLDRKDIERVFNTFYLGEIYPNSIFKFEGLWRKEKRIVDIELLKKAKETYKLGIVTGRDSLEMKLAEEIIRFKFDKVVTRDMFEKPDPRALYEVTQGEEAIYIGDSKVDEELVERYRRTFKGNVTYLMVGRDVNDVNEALKKILFQSYIRLEHHHHHH | soluble
MWKISKENCEDLGFAIVCMFYDAINLSEFKLWLDIVVRDIPIDTIPLYIFDLIDFDKSIGEIYDVIGVVNYGYISNDQKNALTGIAFLRGIDVYDPPISKEKALKALEKYPEIYQRFQHFFPFVELPLF | not soluble
MWQNFYLTTLKLSQYTQEEKPILPADNMDPRALASVHAWEHGDFMCKGYIQSRLSDPLYNVYSNVETSNELWDSLDKKYQTKDAGSQKYAAAKFLDYKMVDSRPMMVQVEELTCLFHDI | soluble
MWYQKTLTLSAKSRGFHLVTDEILNQLADMPRVNIGLLHLLLQHTSASLTLNENCDPTVRHDMERFFLRTVPDNGNYEHDYEGADDMPSHIKSSMLGTSLVLPVHKGRIQTGTWQGIWLGEHRIHGGSRRIIATLQGELEHHHHHH | soluble
MYAFVRFLEDNVCYALPVSCVRDFSPRSRLDFDNQKVYAVYRGPEELGAGPESPPRAPRDWGALLLHKAQILALAEDKSDLENSVMQKKIKIPKLSLNHVEEDGEVKDYGEEDLQLRHIKRPEGRKPSEVAHKSIEAVVARLEKQNGLSLGHSTCPEEVFVEASPGTEDMDSLEDAVVPRALYEELLRNYQQQQEEMRHLQQELERTRRQLVQQAKKLKEYGALVSEMKELRDLNRRLQDVLLLRLGSGPAIDLEKVKSECLEPEPELRSTFSEEANTSSYYPAPAPVMDKYILDNGKVHLGSGIWVDEEKWHQLQVTQGDSKYTKNLAVMIWGTDVLKNRSVTGVATKKKKDAVPKPPLSPHKLSIVRECLYDRIAQETVDETEIAQRLSKVNKYICEKIMDINKSCKNEERREAKYNLQ | soluble
MYATFSALKKYGYAELSIQRIASELNFSKSTLYHHFSDKDDLLLSFFNFLLDELEQFCKSSSTNEPKKELLDFVDVLLDEGITQKEQSAKGEILAAYIELRSQAIHDTKYRERITRTDKRFVKQIAVIIDAGIDKGVFQPVEPEETAEFILAILNGILMQGSTRKRAPFQQLRQNLIEYIQTELFVESATRS | not soluble
MYDTEIPYEGKISIYTYFCKECGYRKTEVYSDEKRDPKKITIRIENPDDLRIIVYRSRRADVYIPEMEASIDSAEYSNGEITTIEGIIYRIGEKLDLLAADDQNNKKIASLRKRIDGIINGKFESFTLIIMDESGKSVVHS | not soluble
MYDTPIFRSEFKVISHELIHALPKVILGESGDAAYMQSRVQQLADDHVAYFECTVPHEDIERAISVAEQAPFTVGILERIDDSSHYTDRSRTPVVVGFSTQSADVAAILRENYVPFEFDGSVADQVRVGASRIIHGIGLFEDFRFEDDDIVPGRLSAWVRDRDYPVLVEPFADLENGEVAELADHPLPLMSKLGYRTASSILSTDRLLELTEYLELQIEDLFELTRDAVAVSLLPQPLRVQLWEELVFPFFEQLGEDFADHSTTDDAESTTELRSEREHAGHAHTDHHGGAAGLEGVDPQFLDEMGIEFDDLDL | not soluble
MYDVLDSQSVLEVLRPVQDPELRKSLVELNMIRNVKIDGGQVSFTLVLTTPACPLREFIVEDCQRAVKKLPGVTDVSVEVTAETPQQKSLPDRNGVPGVKNIIAISSGKGGVGKSTVAVNVAVALAQTGAKVGLLDADIYGPNDPTMLGLGDAQIVVRSTEKGEVLEPAFNHGVKLVSMGFLIDRDQPVIWRGPMLNGVIRQFLYQVEWGELDYLIVDMPPGTGDAQLTLTQAVPMSGAVIVTTPQNVALLDSRKGLRMFQQMNVAVLGIVENMSYFIPPDMPDKHYDIFGSGGGSKTAAELGVPLLGCIPLEISTRIGGDNGVPIVVADPDSASAKALKAIALTIAGKVSVAALTLEHHHHHH | soluble
MYEGLLIDIDYLLNVVKELKINFDKKIKTLNLLIERNIPIVLYTENNKEYVDTIMKYLKIKEPAIIVEGAQIYSPFDLSYEAVFPLSINTVCKLGNWAMDRKMDMSISTDKKVIDYSEWLKELRQVNYKNAGDKLPSAVKVDICMKNDDKRIELLNFIGKNNLECYAHMYLNHVACINSIVDKGNTLKYLANKKKWDIKKFAMIGDYSKDTSIFDEVGF | not soluble
MYGAVVVAGDHQRGAGVGMLRTRKLAQVAEINVVKSLDYLRLWHPILQNLRGRDFPTIELLLLRWRPARSAPPLSPPRTQDFENPWSPKSHRTALPWVFVFLSSRSRDRGPKNPTRAQWVPMNR | not soluble
MYIDKDDFTAWMERIMDRFDMQDKKIDRVIKGRNCLDGEELLDNQDLCLLLKVAPRTLTRYRKKGILPFLMLDGRCYYRATDVHKLIREKTD | not soluble
MYIKNSERLKFRLMDSKDAQELWEIDQDPTVMKFLNGGNPTSIEQVNSVFIPRMNKYRNSELGWGIWQVSNKVTDEYLGWVLIRPMSFFTESPNTKDLELGWRFFQSTWGKGYATEAAIAIRDAVVANTDVTHVSALAVADNLASVGVMKKMGMHFVRAYLHEDPIGDFDAVHYQMSVRNK | not soluble
MYILVENAVTSKQLVTGVRTEPHYRYAGYYLKAYEIVANQERDKTKYESLEPAIKALFTLDSEHEKKVRTQLENLKLLTKFKFTGIYTESVDRYNKAVVLQDKGKTEDAETATTNAQT | not soluble
MYIPKHFAVNDPDVAYQVIEENSFATLVSMHQRELFATHLPLLLDREKTCLYGHFARSNPQWNDIQHQTVLAIFHGPHCYISPSWYETNQAVPTWNYVAVHVYGNVELINDQGEVMQSLHDMVEKYEAPGSRYQLSEVDAGMLSGMNKGIQAFKIIIKRIEGKAKLSQNHPAHRQERIIKQLEQMPFENEKRIASLMKKQRQ | soluble
